# Data published in paper PMC11580166, “VPS26 Moonlights as a β-Arrestin-like Adapter for a 7-Transmembrane RGS Protein in Arabidopsis thaliana” (Biochemistry, 2024).
# B1: Vacuolar Protein Sorting-Associated 26B (AtVPS26B) [Arabidopsis thaliana] / Vacuolar Protein Sorting-Associated 26A (AtVPS26A) [Arabidopsis thaliana] (parent complex)
# chain 1: MNYLLGAFKPACNISITFSDGKNRKQVPMKKENGQTALVPLFHSQDTISGKVCIEPYQGKKVEHNGVKVELLGQIEMYFDRGNFYDFTSLVRELDVPGEIYERKTYPFEFPTVEMPYETYNGVNVRLRYVLKVTVTRGYAGSILEYQELVVRNYAPLPDINNSIKMEVGIEDCLHIEFEYNKSKYHLKDVILGKIYFLLVRIKMKNMDLEIRRRESTGAGANTHVETETLAKFELMDGTPVRGESIPVRLFLAPYDLTPTHRNINNKFSVKYYLNLVLVDEEDRRYFKQQEITLYRLKEDASS
# chain 2: MNYLLGAFKPACNISITFTDGKNRKQVPTKKDNGQIVMNPLFQSQETIAGKINIEPYQGKKVEHNGVKVELLGQIEMYFDRGNFYDFTSLVREIDVPGEIYERKTYPFEFSSVEMPYETYNGVNVRLRYVLKVTVTRGYAGSIVEYQDFVVRNYVPLPPINNSIKMEVGIEDCLHIEFEYNKSKYHLKDVILGKIYFLLVRIKIKNMDLEIRRRESTGAGANTHVETETLAKFELMDGAPVRGESIPVRVFLTPYDLTPTHKNINNKFSVKYYLNLVLVDEEDRRYFKQQEITLYRLKEETS
# Variants of: B1
# Test: Microscale Thermophoresis (MST); parent: 18 nM
row,Variant,Kd [nM]
1,"chain 1 Y85A, chain 1 E93A",525
